Consider four sequences from the supplement of paper PMC11246515.

The nature of the series: total protein half-life in vivo (active degradation + dilution); higher = more stable protein.
[1] abbreviates: E. coli NCM3722 delta-clpP delta-lon delta-hslV, growth: N-lim chemostat, doubling time 6 h.
Setting [2] is: E. coli NCM3722 delta-clpP, growth: N-lim chemostat, doubling time 6 h.
[3] abbreviates: E. coli NCM3722 delta-hslV, growth: N-lim chemostat, doubling time 6 h.
The mark [4] stands for this setting: E. coli NCM3722 delta-lon, growth: N-lim chemostat, doubling time 6 h.
[5] abbreviates: E. coli NCM3722 delta-smpB, growth: N-lim chemostat, doubling time 6 h.
Where [6] appears, read: wild type E. coli NCM3722, growth: C-lim chemostat, doubling time 3 h.
Where [7] appears, read: wild type E. coli NCM3722, growth: C-lim chemostat, doubling time 6 h.
[8] abbreviates: wild type E. coli NCM3722, growth: C-lim chemostat, doubling time 12 h.
The mark [9] stands for this setting: wild type E. coli NCM3722, growth: N-lim chemostat, doubling time 6 h.
Where [10] appears, read: wild type E. coli NCM3722, growth: N-lim chemostat, doubling time 12 h.
The mark [11] stands for this setting: wild type E. coli NCM3722, growth: P-lim chemostat, doubling time 6 h.
Setting [12] is: wild type E. coli NCM3722, growth: P-lim chemostat, doubling time 12 h.

± gives the standard deviation of the averaged measurements.

For the sequence “MAVNLLKKNSLALVASLLLAGHVQATELLNSSYDVSRELFAALNPPFEQQWAKDNGGDKLTIKQSHAGSSKQALAILQGLKADVVTYNQVTDVQILHDKGKLIPADWQSRLPNNSSPFYSTMGFLVRKGNPKNIHDWNDLVRSDVKLIFPNPKTSGNARYTYLAAWGAADKADGGDKGKTEQFMTQFLKNVEVFDTGGRGATTTFAERGLGDVLISFESEVNNIRKQYEAQGFEVVIPKTNILAEFPVAWVDKNVQANGTEKAAKAYLNWLYSPQAQTIITDYYYRVNNPEVMDKLKDKFPQTELFRVEDKFGSWPEVMKTHFTSGGELDKLLAAGRN”, the “total protein half-life in vivo” value is, setting by setting: under setting [1], 4.09 ± 0.2 h; under setting [2], 5.26 ± 0.17 h; under setting [3], 6.24 ± 0.08 h; under setting [4], 6.861 ± 0.011 h; under setting [5], 5.74 ± 0.07 h; under setting [6], 3.3 ± 0.27 h. Also, the “total protein half-life in vivo” value is, setting by setting: under setting [7], 6.1057 ± 0.00027 h; under setting [8], 10 ± 0.37 h; under setting [9], 6.338 ± 0.056 h; under setting [10], 12.8 ± 0.46 h; under setting [11], 6.18 ± 0.1 h; under setting [12], 12.4 ± 0.31 h.
On to “MNIYRLSFVSCLVMAMPCAMAVEFNLNVLDKSMRDRIDISLLKEKGVIAPGEYFVSVAVNNNKISNGQKINWQKKGDKTIPCINDSLVDKFGLKPDIRQSLPQIDRCIDFSSRPEMLFNFDQANQQLNISIPQAWLAWHSENWAPPSTWKEGVAGVLMDYNLFASSYRPQDGSSSTNLNAYGTAGINAGAWRLRSDYQLNKTDSEDNHDQSGGISRTYLFRPLPQLGSKLTLGETDFSSNIFDGFSYTGAALASDDRMLPWELRGYAPQISGIAQTNATVTISQSGRVIYQKKVPPGPFIIDDLNQSVQGTLDVKVTEEDGRVNNFQVSAASTPFLTRQGQVRYKLAAGQPRPSMSHQTENETFFSNEVSWGMLSNTSLYGGLLISDDDYHSAAMGIGQNMLWLGALSFDVTWASSHFDTQQDERGLSYRFNYSKQVDATNSTISLAAYRFSDRHFHSYANYLDHKYNDSDAQDEKQTISLSVGQPITPLNLNLYANLLHQTWWNADASTTANITAGFNVDIGDWRDISISTSFNTTHYEDKDRDNQIYLSISLPFGNGGRVGYDMQNSSHSTIHRMSWNDTLDERNSWGMSAGLQSDRPDNGAQVSGNYQHLSSAGEWDISGTYAASDYSSVSSSWSGSFTATQYGAAFHRRSSTNEPRLMVSTDGVADIPVQGNLDYTNHFGIAVVPLISSYQPSTVAVNMNDLPDGVTVAENVIKETWIEGAIGYKSLASRSGKDVNVIIRNASGQFPPLGADIRQDDSGISVGMVGEEGHAWLSGVAENQLFTVVWGEQSCIIHLPERLEDTTKRLILPCH”, for which the “total protein half-life in vivo” value worked out at 3.41 ± 0.16 h under setting [1]; 2.97 h under setting [2]; 4.23 h under setting [7]; 2.94 h under setting [9]; 3.79 h under setting [10]; 3.94 h under setting [11]. The “total protein half-life in vivo” value under setting [12] was 11 ± 0.78 h.
In the case of “MSFFISDAVAATGAPAQGSPMSLILMLVVFGLIFYFMILRPQQKRTKEHKKLMDSIAKGDEVLTNGGLVGRVTKVAENGYIAIALNDTTEVVIKRDFVAAVLPKGTMKAL [P0ADZ7]”, the “total protein half-life in vivo” value under setting [1] was 5.95 ± 0.52 h; the “total protein half-life in vivo” value under setting [2] was 6.69 ± 0.75 h; the “total protein half-life in vivo” value under setting [3] came out at 5.78 ± 0.33 h; the “total protein half-life in vivo” value under setting [4] turned out to be 5.892 ± 0.037 h; the “total protein half-life in vivo” value under setting [5] turned out to be 6.28 ± 0.31 h; the “total protein half-life in vivo” value under setting [6] turned out to be 3.16 ± 0.14 h. Moreover, the “total protein half-life in vivo” value was 6.018 ± 0.04 h under setting [7]; 11.5 ± 0.56 h under setting [8]; 5.64 ± 0.49 h under setting [9]; 12.8 ± 2 h under setting [10]; 6.55 ± 0.62 h under setting [11]; 13 ± 0.39 h under setting [12].
Take “MQENYKILVVDDDMRLRALLERYLTEQGFQVRSVANAEQMDRLLTRESFHLMVLDLMLPGEDGLSICRRLRSQSNPMPIIMVTAKGEEVDRIVGLEIGADDYIPKPFNPRELLARIRAVLRRQANELPGAPSQEEAVIAFGKFKLNLGTREMFREDEPMPLTSGEFAVLKALVSHPREPLSRDKLMNLARGREYSAMERSIDVQISRLRRMVEEDPAHPRYIQTVWGLGYVFVPDGSKA [P0AA16]”: the “total protein half-life in vivo” value runs as follows: under setting [1], 5.29 ± 0.46 h; under setting [2], 6.03 ± 1.6 h; under setting [3], 5.25 ± 0.31 h; under setting [4], 6.35 ± 0.91 h; under setting [5], 4.73 ± 0.46 h; under setting [6], 3.32 ± 0.41 h. Also, the “total protein half-life in vivo” value is, setting by setting: under setting [7], 5.849 ± 0.017 h; under setting [8], 10.3 ± 0.2 h; under setting [9], 4.67 ± 0.22 h; under setting [10], 8.55 ± 0.08 h; under setting [11], 5.66 ± 0.17 h; under setting [12], 11 ± 0.14 h.
